According to the supplement of paper PMC10567573:

B1: SPRY1 (parent)
chain: WIHRPGCRCKNSNTVYCKLESCPS

Variants of: B1
Assay: protein stability index of a GFP-peptide fusion (GPS, HEK-293T) (PSI 1-6); higher = more stable
Details: c terminus: a fixed tail appended
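Also: lentivirally expressed fusions sorted by FACS into six bins by GFP to DsRed ratio, PSI derived from sequencing read proportions per bin multiplied by bin number.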

With G6L as the variant, how does the protein stability index read?
The protein stability index was 1.97.

Which protein stability index does the source give for G6M here?
The protein stability index was 2.16.

For G6N, which protein stability index is on record?
Its protein stability index is 2.37.

For G6P, which protein stability index is on record?
The protein stability index was 2.61.

With G6Q as the variant, how does the protein stability index read?
The protein stability index was 2.16.

With G6R as the variant, how does the protein stability index read?
Its protein stability index is 2.12.

For G6S, which protein stability index is on record?
Its protein stability index is 2.48.

Which protein stability index does the source give for G6T here?
The protein stability index was 3.09.

With G6V as the variant, how does the protein stability index read?
The protein stability index was 1.93.

For G6W, which protein stability index is on record?
Its protein stability index is 2.69.

Which protein stability index does the source give for G6Y here?
Its protein stability index is 2.26.

Which protein stability index does the source give for C7A here?
Its protein stability index is 2.35.

For C7D, which protein stability index is on record?
Its protein stability index is 2.28.

With C7E as the variant, how does the protein stability index read?
The protein stability index was 1.85.

Which protein stability index does the source give for C7F here?
Its protein stability index is 2.89.

Which protein stability index does the source give for C7G here?
The protein stability index was 1.25.

Which protein stability index does the source give for C7H here?
The protein stability index was 2.55.

For C7I, which protein stability index is on record?
Its protein stability index is 1.52.

With C7K as the variant, how does the protein stability index read?
Its protein stability index is 1.49.

With C7L as the variant, how does the protein stability index read?
Its protein stability index is 1.72.

For C7M, which protein stability index is on record?
The protein stability index was 2.14.

With C7N as the variant, how does the protein stability index read?
Its protein stability index is 2.37.

For C7P, which protein stability index is on record?
The protein stability index was 1.4.

For C7Q, which protein stability index is on record?
The protein stability index was 1.94.

For C7R, which protein stability index is on record?
Its protein stability index is 3.4.

With C7S as the variant, how does the protein stability index read?
Its protein stability index is 1.77.

For C7T, which protein stability index is on record?
Its protein stability index is 1.82.

Which protein stability index does the source give for C7V here?
Its protein stability index is 1.15.

With C7W as the variant, how does the protein stability index read?
The protein stability index was 3.

For C7Y, which protein stability index is on record?
The protein stability index was 1.45.

For R8A, which protein stability index is on record?
Its protein stability index is 3.

With R8C as the variant, how does the protein stability index read?
Its protein stability index is 2.25.

With R8D as the variant, how does the protein stability index read?
The protein stability index was 2.67.

Which protein stability index does the source give for R8E here?
Its protein stability index is 3.33.

For R8F, which protein stability index is on record?
Its protein stability index is 2.08.

For R8G, which protein stability index is on record?
The protein stability index was 2.81.

Which protein stability index does the source give for R8H here?
The protein stability index was 2.63.

With R8I as the variant, how does the protein stability index read?
Its protein stability index is 2.38.

Which protein stability index does the source give for R8K here?
The protein stability index was 2.68.

For R8L, which protein stability index is on record?
The protein stability index was 2.6.

Which protein stability index does the source give for R8M here?
The protein stability index was 2.83.

With R8N as the variant, how does the protein stability index read?
Its protein stability index is 3.28.

For R8P, which protein stability index is on record?
Its protein stability index is 2.4.

With R8Q as the variant, how does the protein stability index read?
Its protein stability index is 3.29.

With R8S as the variant, how does the protein stability index read?
The protein stability index was 2.24.

Which protein stability index does the source give for R8T here?
The protein stability index was 2.26.

Which protein stability index does the source give for R8V here?
Its protein stability index is 2.57.

Which protein stability index does the source give for R8W here?
Its protein stability index is 2.21.

Which protein stability index does the source give for R8Y here?
The protein stability index was 2.2.

Which protein stability index does the source give for C9A here?
The protein stability index was 2.19.

With C9D as the variant, how does the protein stability index read?
Its protein stability index is 2.07.

With C9G as the variant, how does the protein stability index read?
The protein stability index was 1.73.

Which protein stability index does the source give for C9H here?
Its protein stability index is 1.85.

With C9I as the variant, how does the protein stability index read?
Its protein stability index is 1.17.

For C9K, which protein stability index is on record?
The protein stability index was 1.84.

For C9L, which protein stability index is on record?
The protein stability index was 2.69.

With C9N as the variant, how does the protein stability index read?
The protein stability index was 1.97.

With C9P as the variant, how does the protein stability index read?
The protein stability index was 2.4.

Which protein stability index does the source give for C9Q here?
Its protein stability index is 2.

With C9R as the variant, how does the protein stability index read?
Its protein stability index is 1.45.

For C9S, which protein stability index is on record?
Its protein stability index is 3.7.

Which protein stability index does the source give for C9T here?
The protein stability index was 1.49.

Which protein stability index does the source give for C9V here?
The protein stability index was 3.41.

With C9W as the variant, how does the protein stability index read?
Its protein stability index is 2.04.

With K10A as the variant, how does the protein stability index read?
The protein stability index was 2.33.

Which protein stability index does the source give for K10C here?
The protein stability index was 1.88.

Which protein stability index does the source give for K10D here?
Its protein stability index is 3.1.

With K10E as the variant, how does the protein stability index read?
The protein stability index was 2.73.

Which protein stability index does the source give for K10F here?
Its protein stability index is 1.74.

With K10G as the variant, how does the protein stability index read?
Its protein stability index is 2.75.

Which protein stability index does the source give for K10H here?
The protein stability index was 2.77.

With K10I as the variant, how does the protein stability index read?
The protein stability index was 2.88.

Which protein stability index does the source give for K10L here?
Its protein stability index is 1.96.

Which protein stability index does the source give for K10M here?
The protein stability index was 1.63.

Which protein stability index does the source give for K10N here?
Its protein stability index is 2.75.

For K10P, which protein stability index is on record?
Its protein stability index is 2.73.

With K10Q as the variant, how does the protein stability index read?
Its protein stability index is 2.81.

For K10R, which protein stability index is on record?
Its protein stability index is 2.21.

Which protein stability index does the source give for K10S here?
The protein stability index was 2.26.

With K10T as the variant, how does the protein stability index read?
Its protein stability index is 3.11.

Which protein stability index does the source give for K10V here?
Its protein stability index is 2.

Which protein stability index does the source give for K10W here?
The protein stability index was 2.41.

For K10Y, which protein stability index is on record?
The protein stability index was 1.82.

With N11A as the variant, how does the protein stability index read?
Its protein stability index is 3.47.

Which protein stability index does the source give for N11C here?
The protein stability index was 1.83.

For N11D, which protein stability index is on record?
Its protein stability index is 2.88.

Which protein stability index does the source give for N11E here?
The protein stability index was 2.62.

For N11F, which protein stability index is on record?
The protein stability index was 2.42.

Which protein stability index does the source give for N11G here?
Its protein stability index is 2.15.

For N11H, which protein stability index is on record?
The protein stability index was 2.52.

For N11I, which protein stability index is on record?
The protein stability index was 1.86.

For N11K, which protein stability index is on record?
The protein stability index was 2.19.

With N11L as the variant, how does the protein stability index read?
Its protein stability index is 2.51.

With N11M as the variant, how does the protein stability index read?
Its protein stability index is 2.66.

For N11P, which protein stability index is on record?
The protein stability index was 2.27.

For N11Q, which protein stability index is on record?
The protein stability index was 2.41.

For N11R, which protein stability index is on record?
Its protein stability index is 4.1.

For N11S, which protein stability index is on record?
Its protein stability index is 2.7.

For N11T, which protein stability index is on record?
Its protein stability index is 2.1.

For N11V, which protein stability index is on record?
The protein stability index was 3.49.

For N11W, which protein stability index is on record?
The protein stability index was 2.6.

Which protein stability index does the source give for N11Y here?
The protein stability index was 2.07.

With S12A as the variant, how does the protein stability index read?
The protein stability index was 3.15.

Which protein stability index does the source give for S12C here?
Its protein stability index is 3.25.

For S12D, which protein stability index is on record?
The protein stability index was 2.16.

With S12E as the variant, how does the protein stability index read?
Its protein stability index is 2.71.

For S12F, which protein stability index is on record?
Its protein stability index is 2.1.

With S12G as the variant, how does the protein stability index read?
Its protein stability index is 3.79.

With S12H as the variant, how does the protein stability index read?
The protein stability index was 1.4.

With S12I as the variant, how does the protein stability index read?
Its protein stability index is 2.4.

Which protein stability index does the source give for S12K here?
The protein stability index was 2.32.

Which protein stability index does the source give for S12L here?
Its protein stability index is 3.01.

Which protein stability index does the source give for S12M here?
The protein stability index was 2.33.

For S12N, which protein stability index is on record?
The protein stability index was 2.12.

For S12P, which protein stability index is on record?
The protein stability index was 1.65.

Which protein stability index does the source give for S12Q here?
The protein stability index was 2.14.

For S12R, which protein stability index is on record?
The protein stability index was 2.03.

With S12T as the variant, how does the protein stability index read?
Its protein stability index is 2.28.

Which protein stability index does the source give for S12V here?
The protein stability index was 2.2.

Which protein stability index does the source give for S12W here?
Its protein stability index is 1.73.

Which protein stability index does the source give for S12Y here?
Its protein stability index is 1.97.

For N13A, which protein stability index is on record?
The protein stability index was 1.92.

With N13C as the variant, how does the protein stability index read?
Its protein stability index is 2.1.

Which protein stability index does the source give for N13D here?
Its protein stability index is 3.17.

With N13E as the variant, how does the protein stability index read?
Its protein stability index is 2.64.

For N13F, which protein stability index is on record?
Its protein stability index is 2.3.

Which protein stability index does the source give for N13G here?
The protein stability index was 2.23.

Which protein stability index does the source give for N13H here?
Its protein stability index is 1.91.

For N13I, which protein stability index is on record?
The protein stability index was 1.67.

With N13K as the variant, how does the protein stability index read?
Its protein stability index is 1.17.

With N13L as the variant, how does the protein stability index read?
The protein stability index was 2.31.

With N13M as the variant, how does the protein stability index read?
Its protein stability index is 2.74.

With N13P as the variant, how does the protein stability index read?
Its protein stability index is 2.36.

With N13Q as the variant, how does the protein stability index read?
The protein stability index was 2.26.

For N13R, which protein stability index is on record?
Its protein stability index is 1.88.

With N13S as the variant, how does the protein stability index read?
The protein stability index was 2.06.

Which protein stability index does the source give for N13T here?
The protein stability index was 2.4.

For N13V, which protein stability index is on record?
Its protein stability index is 2.04.

For N13W, which protein stability index is on record?
Its protein stability index is 2.81.

For N13Y, which protein stability index is on record?
Its protein stability index is 2.73.

For T14A, which protein stability index is on record?
The protein stability index was 2.89.

Which protein stability index does the source give for T14C here?
The protein stability index was 2.56.

Which protein stability index does the source give for T14D here?
The protein stability index was 3.07.

For T14E, which protein stability index is on record?
Its protein stability index is 2.84.

With T14F as the variant, how does the protein stability index read?
Its protein stability index is 1.9.

Which protein stability index does the source give for T14G here?
Its protein stability index is 2.8.

For T14H, which protein stability index is on record?
The protein stability index was 1.99.

For T14I, which protein stability index is on record?
Its protein stability index is 2.6.

Which protein stability index does the source give for T14K here?
The protein stability index was 1.92.

For T14L, which protein stability index is on record?
The protein stability index was 2.08.

With T14M as the variant, how does the protein stability index read?
The protein stability index was 1.97.

Which protein stability index does the source give for T14N here?
The protein stability index was 2.78.

Which protein stability index does the source give for T14P here?
Its protein stability index is 1.79.

Which protein stability index does the source give for T14Q here?
Its protein stability index is 2.87.

For T14R, which protein stability index is on record?
Its protein stability index is 1.54.

For T14S, which protein stability index is on record?
Its protein stability index is 2.59.

With T14V as the variant, how does the protein stability index read?
Its protein stability index is 1.86.

Which protein stability index does the source give for T14W here?
The protein stability index was 1.85.

For T14Y, which protein stability index is on record?
Its protein stability index is 1.84.

Which protein stability index does the source give for V15A here?
Its protein stability index is 2.41.

With V15C as the variant, how does the protein stability index read?
Its protein stability index is 2.42.

For V15D, which protein stability index is on record?
Its protein stability index is 3.14.

With V15E as the variant, how does the protein stability index read?
Its protein stability index is 2.49.

Which protein stability index does the source give for V15F here?
The protein stability index was 2.37.

With V15G as the variant, how does the protein stability index read?
The protein stability index was 2.69.

Which protein stability index does the source give for V15H here?
Its protein stability index is 2.06.

Which protein stability index does the source give for V15I here?
Its protein stability index is 2.14.
